The values below are quoted from earlier work in article PMC7343451.

As a reminder, the Kd is the concentration at which binding is half-saturated.

The data set has as its target SARS-CoV-2 spike RBD (Severe acute respiratory syndrome coronavirus 2) (UniProt P0DTC2).

With “hACE2 peptide 21-43 (from UniProt Q9BYF1)”, the Kd was 47 nM.
